Source: patent US20240124597A1 (Bristol-Myers Squibb, published 2024)

biological target: T1, human-CD40-monomer protein (human, UniProt P25942 21-193, limits assumed); experiment: SPR, Ab captured on protein A, hCD40 monomer 500 and 50 nM, 1:1 fit; supernatant
T1 construct: Soluble monomer generated in house, used as SPR analyte; also called hCD40; hCD40-monomer
Description: Titer analysis was performed using Biolayer Interferometry (BLI) on an Octet RED instrument (Fortebio) by capturing antibodies from supernatant using protein A sensor tips and measuring capture response with respect to a standard curve obtained using a control antibody sample. SPR data were obtained by capturing antibodies on a protein A surface and testing the binding of 500 nM and 50 nM injections of human-CD40 analyte, using a BIAcore™ T200 instrument (GE Healthcare). The kinetic data for the two concentrations of hCD40-monomer were fit to a 1:1 Langmuir model, to yield estimates of the kinetic and affinity values for these interactions, and for comparison of the different molecules.

T1 sequence (P25942 21-193 limits assumed): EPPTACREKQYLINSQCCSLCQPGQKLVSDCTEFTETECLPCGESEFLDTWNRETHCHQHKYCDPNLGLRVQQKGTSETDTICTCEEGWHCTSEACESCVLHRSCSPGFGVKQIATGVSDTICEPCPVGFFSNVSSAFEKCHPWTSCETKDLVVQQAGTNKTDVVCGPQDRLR

Kd [nM] | koff [s⁻¹] | kon [M⁻¹ s⁻¹] | Binder
6.4 | 0.0024 | 380000 | Y12XX-hz6 (antibody, human IgG1, kappa, V domains shown, Humanized, IgG1-P238K; supernatant sample) VH: QVQLVQSGAEVKKPGSSVKVSCKASGYAFTSYWMHWVRQRPGQGLEWIGYINPTTGYSAYNQKFKDKATLTADKSTSTAYMELNSLRSEDTAVYYCARWDPRPFAYWGQGTLVTVSS VL: DIQMTQSPSSLSASVGDRVTITCKASQDVSTAVAWYQQKPGKAPKLLIYSASYRYTGVPSRFSGSGSGTDFTFTISSLQPEDIATYYCQQHYSTPWTFGGGTKVEIKR

biological target: T1, human-CD40-monomer protein; experiment: SPR, Ab captured on protein A, 1 uM hCD40 monomer, single concentration, apparent value
Description: The CD40 kinetic and affinity data for human-CD40 monomer binding to mouse anti-human CD40 antibodies captured on a protein A sensor chip surface were assessed by SPR. The data shown are for a single concentration of CD40 analyte (1 μM) and are therefore reported as apparent (app) values.

Binder | Kd [nM] | koff [s⁻¹] | kon [M⁻¹ s⁻¹]
ADX_Y1072.ZZ0-1 (antibody, V domains shown, Mouse anti-human-CD40 antibody) VH: QVQFQQSGAELARPGASVKLSCKASGYTFTSYWMQWVKQRPGQGLEWIGTIYPGDGDSRYNQKFKGKALLTADKSSSIAYMQLNSLASEDSAVYFCARFSLYDGYPYYFDYWGQGTTLTVSS VL: DVVMTQTPLSLPVSLGDQASISCRSSQSLVHRNGNTYLHWYLQKPGQSPKLLIYRVSNRFSGVPDRFSGSGSGTDFTLKISRVEAEDLGIYFCSQSTHFPYTFGGGTKLEIK | 120 | 0.0092 | 77000
ADX_Y1258.ZZ0-1 (antibody, V domains shown, Mouse anti-human-CD40 antibody) VH: QVQLQQSGAELAKPGSSVKMSCKASGYAFTSYWMHWIKQRPGQGLEWIGFINPTTGYSEYNQKFKDKATLTADKSSSTAYMQLNSLTSEDSAVYFCARWGLPPFAYWGQGTLVTVSA VL: DIVMTQSHKFMSTSVGDRVSITCKASQDVSTAVAWYQQKPGQSPKLLIYSASYRYTGVPDRFTGSGSGTDFTFTISSVQAEDLAVYYCQQHYSTPWTFGGGTKLEIK | 7.9 | 0.00013 | 17000
ADX_Y1267.ZZ0-1 (antibody, V domains shown, Mouse anti-human-CD40 antibody) VH: QVQLQQPGAELVKPGASVRLSCEASGYSFTSYWMHWVKQRPGQGLEWIGQINPSNGRTQYNEKFKSMATLTVDKSSSTAYIQLNSLTSEDSAVYYCARWGLQPFAYWGQGTLVTVSA VL: DIVMTQSHKFMSTSVGDRVSITCKASQDVSTAVAWYQQKPGQSPKLLIYSASYRYTGVPDRFTGSGSGTDFTFTISSVQAEDLAVYYCLQHYTTPWTFGGGTKLEIK | 1.1 | 0.00041 | 370000
ADX_Y1268.ZZ0-1 (antibody, V domains shown, Mouse anti-human-CD40 antibody) VH: QVQLQQPGAELVKPGASVRLSCKASGYAFTSYWMHWVKQRPGQGLEWIGQINPSNGRSQYNEKFKTMATLTVDKSSSTAYIQLSSLTSEDSAVYYCARWGLQPFAYWGQGTLVTVSA VL: DIVMTQSHKFMSTSVGDRVSITCKASQDVSTAVAWYQQKPGQSPKLLIYSASYRYTGVPDRFTGSGSGTDFTFTISSVQAEDLAVYYCQQHYSTPWTFGGGTKLEIK | 1.4 | 0.00046 | 320000
ADX_Y1260.ZZ0-1 (antibody, V domains shown, Mouse anti-human-CD40 antibody) VH: QVQLQQSGAELTKPGASVKMSCKASGYSFTSYWMHWVKQRPGQGLEWIGSINPSTGYTEDNQKFKDKATLTADKSSTTAYMQLSSLTSEDSAVYYCARWGLPPFAYWGQGTLVTVSA VL: DIVMTQSHKFMSTSVGDRVSITCKASQDVSTAVAWYQQKPGQSPKLLIYSASYRYTGVPDRFTGSGSGTDFTFTISSVQAEDLAVYYCQQHYSTPWTFGGGTKLEIK | 4 | 0.00021 | 52000

The next lines start with the values.

Kd [nM] | koff [s⁻¹] | kon [M⁻¹ s⁻¹] | Binder
17 | 0.00023 | 14000 | ADX_Y1264.ZZ0-1 (antibody, V domains shown, Mouse anti-human-CD40 antibody) VH: EVQLQQSGTVLARPGASVKMSCRASGYSFSSYWMHWVKQRPGQGLEWIGSINPGNSDAFYNQQFKGKAKLTAVTSASTAYMELSSLTNEDSAVYYCTRWGLPPFAYWGQGTLVTVSA VL: DIVMTQSHKFMSTSVGDRVSITCKASQDVSTAVAWYQQKPGQSPKLLIYSASYRYTGVPDRFTGSGSGTDFTFTISSVQAEDLAVYYCHQHYSTPWTFGGGTKLEIK
2.2 | 0.00012 | 55000 | ADX_Y1238.ZZ0-1 (antibody, V domains shown, Mouse anti-human-CD40 antibody) VH: QVQLQQSGAELVRPGTSVKVSCKASGYAFTNYLIEWVKQRPGQGLEWIGVINPGSGGTNYNEKFKGKATLTADKSSSTAYMQLSSLTSDDSAVYFCARSQLGRRFDYWGQGTTLTVSS VL: DIVMTQSHKFMSTSVGDRVSITCKASQDVRTGVAWYQQKPGQSPKLLIYSASYRNTGVPDRFTGSRSGTDFTFTISSVQAEDLAVYYCQQHYSPPYTFGGGTKLEIK
6.6 | 0.0025 | 370000 | ADX_Y1262.ZZ0-1 (antibody, V domains shown, Mouse anti-human-CD40 antibody) VH: QVQLQQSGAELAKPGSSVKMSCKASGYAFTSYWMHWVKQRPGQGLEWIGYINPTTGYSAYNQKFKDKATLTADKSSSTAYMQLNSLTSEDSAVYYCARWDPRPFAYWGQGTLVTVSA VL: DIVMTQSHKFMSTSVGDRVSITCKASQDVSTAVAWYQQKPGQSPKLLIYSASYRYTGVPDRFTGSGYGTDFTFTISSVQAEDLAVYYCQQHYSTPWTFGGGTKLEIK
